Measurements published in patent US20230338431.

Biological target: cAMP response element-binding protein 1 (CREB1) (UniProt P16220)
Sequence (P16220 whole entry): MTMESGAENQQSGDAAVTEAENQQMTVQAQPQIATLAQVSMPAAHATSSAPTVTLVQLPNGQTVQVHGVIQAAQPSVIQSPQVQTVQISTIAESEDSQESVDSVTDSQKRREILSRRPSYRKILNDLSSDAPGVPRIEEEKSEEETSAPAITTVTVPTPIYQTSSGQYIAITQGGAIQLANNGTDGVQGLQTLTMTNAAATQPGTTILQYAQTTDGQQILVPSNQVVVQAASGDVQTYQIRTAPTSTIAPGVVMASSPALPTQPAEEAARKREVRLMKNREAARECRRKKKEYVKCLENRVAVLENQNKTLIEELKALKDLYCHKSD

protein kinase B (AKT) subunit AKT1
p-CREB1 expression after siRNA against AKT1, AKT2 and AKT3, immunoblotting assay: only AKT1 phosphorylated and activated its downstream effector cAMP response element-binding protein 1 (CREB1)
